The data set in a line: soluble on expression in E. coli; label from the status in PepcDB or PDB records.
Take “MEIQIVTGFLGAGKTTFLNRYLPLLSGKTVVIENEFGDIGIDGDRIQEDIPVREIFAGCICCSLAMDFRKGIKEIAENFHPDRILIEPSGVGRLTDIVKACQMAREREKVSLQITKLIAIVDMASFEEYIEGFGAFYQDQIERAGLLLLSHVEAENKAQKEIIIGRLKELNPDAILYDGDWRQLENEELLKLLEEAPDYDEDARRDAAFAALPADKVFSSVSFMDLPQMRIEDLEAIMKALEKEEYGYILRAKGWIETMEKGLVHFDFTPTVSKYREEKNPAGTGGEAVVIGCGLNQAALEMLFRRKNILEHHHHHH”: the “soluble on expression in E. coli” value is “soluble”.

Take “MEISTLPIYHTKTKMFGYYAYKSFSFLPEWKIDVTRDFDVTIGPKFSANLVFGVNNRNRSDYTQFVIDKDEIIVSASVGEEVDFNYRLRDNLKAYIGLEAQVGIGERIYTKSGLYDTGKKIEGSSENAFKPYTPYIIFNNTHIMYSGKVSAGLKIRDKYNIALYGGYGKGYFGIEFGQTF”: the “soluble on expression in E. coli” value is recorded as “not soluble”.

With “MEKEIKEKNLPLELTLVEASPRVGGKIQTVKKDGYIIERGPDSFLERKKSAPQLVKDLGLEHLLVNNATGQSYVLVNRTLHPMPKGAVMGIPTKIAPFVSTGLFSLSGKARAAMDFILPASKTKDDQSLGEFFRRRVGDEVVENLIEPLLSGIYAGDIDKLSLMSTFPQFYQTEQKHRSLILGMKKTRPQGSGQQLTAKKQGQFQTLSTGLQTLVEEIEKQLKLTKVYKGTKVTKLSHSGSCYSLELDNGVTLDADSVIVTAPHKAAAGMLSELPAISHLKNMHSTSVANVALGFPEGSVQMEHEGTGFVISRNSDFAITACTWTNKKWPHAAPEGKTLLRAYVGKAGDESIVDLSDNDIINIVLEDLKKVMNINGEPEMTCVTRWHESMPQYHVGHKQRIKELREALASAYPGVYMTGASFEGVGIPDCIDQGKAAVSDALTYLFS”, the “soluble on expression in E. coli” value is on record as “not soluble”.

On to “MEKKTNCIQNEEQKKEKELIAEKAAKAGFVNRLYVNIGQKVGVVELTKLEPRFERNIDKLTSYHNLIYKIVNVIELQVQFMPKAMAKKAVLCAPGENPWEVLGGWLNYLGKNQFDGQHSKMLEKYSSACGRIAQKEIQVQKRTRSHLIKKMRLYTGEESEILNSNVENLNNLLHAIDDSRHHVKSSKTTKEVKAKGETYRKAINAFNETANEVQALIDEVAMVVPLHENEFLKFSREASVYHDTVHNSLSEVIFRLGYHVKKH”, for which the “soluble on expression in E. coli” value is “not soluble”.

As to “MEKNWYVVHTYSGYENKVKANLEKRVESMGMQDKIFRVVVPEEEETDIKNGKKKVVKKKVFPGYVLVEIVMTDDSWYVVRNTPGVTGFVGSAGSGSKPTPLLPGEAETILKRMGMDERKTDIDFELKETVKVIDGPFANFTGSIEEIDYDKSKVKVFVNMFGRETPVELEFTQIDKLLEHHHHHH”, the “soluble on expression in E. coli” value was “not soluble”.

Take “MEKQWWKESVVYQIYPRSFMDSNGDGIGDLRGIISKLDYLKELGIDVIWLSPVYESPNDDNGYDISDYCKIMNEFGTMEDWDELLHEMHERNMKLMMDLVVNHTSDEHNWFIESRKSKDNKYRDYYIWRPGKEGKEPNNWGAAFSGSAWQYDEMTDEYYLHLFSKKQPDLNWDNEKVRQDVYEMMKFWLEKGIDGFRMDVINFISKEEGLPTVETEEEGYVSGHKHFMNGPNIHKYLHEMNEEVLSHYDIMTVGEMPGVTTEEAKLYTGEERKELQMVFQFEHMDLDSGEGGKWDVKPCSLLTLKENLTKWQKALEHTGWNSLYWNNHDQPRVVSRFGNDGMYRIESAKMLATVLHMMKGTPYIYQGEEIGMTNVRFESIDEYRDIETLNMYKEKVMERGEDIEKVMQSIYIKGRDNARTPMQWDDQNHAGFTTGEPWITVNPNYKEINVKQAIQNKDSIFYYYKKLIELRKNNEIVVYGSYDLILENNPSIFAYVRTYGVEKLLVIANFTAEECIFELPEDISYSEVELLIHNYDVENGPIENITLRPYEAMVFKLK”: the “soluble on expression in E. coli” value is reported as “soluble”.

Turning to “MEKVLDLDVQVKANNNSNDSAGDERITSHSLCTPGCAKTGSFNSFCC”, the “soluble on expression in E. coli” value is on record as “not soluble”.

With “MELFKDIKNLGKLVRLERIFNRESEKTVIVPMDHGVSNGPIKGLIDIRKTVNDVAEGGANAVLLHKGIVRHGHRGYGKDVGLIIHLSGGTAISPNPLKKVIVTTVEEAIRMGADAVSIHVNVGSDEDWEAYRDLGMIAETCEYWGMPLIAMMYPRGKHIQNERDPELVAHAARLGAELGADIVKTSYTGDIDSFRDVVKGCPAPVVVAGGPKTNTDEEFLQMIKDAMEAGAAGVAVGRNIFQHDDVVGITRAVCKIVHENADVEEALKEIRKK”, the “soluble on expression in E. coli” value is recorded as “soluble”.

“MELFLAGRRVLVTGAGKGIGRGTVQALHATGARVVAVSRTQADLDSLVRECPGIEPVCVDLGDWEATERALGSVGPVDLLVNNAAVALLQPFLEVTKEAFDRSFEVNLRAVIQVSQIVARGLIARGVPGAIVNVSSQCSQRAVTNHSVYCSTKGALDMLTKVMALELGPHKIRVNAVNPTVVMTSMGQATWSDPHKAKTMLNRIPLGKFAEVEHVVNAILFLLSDRSGMTTGSTLPVEGGFWAC”: the “soluble on expression in E. coli” value is “soluble”.

Turning to “MELIDKFITLHDQLRKDLNLASLCISKAKTTHGIGLFSVNSVDTHDLEPSIRLDTKNGKFVLLKNSENEEEKNDKKNKKKKDENKSEKKNSGESEDVEEAKKTFSGQFRPFGVLEPAAAKDARKIYRNSIQTILDLVSTQQSILAKSRQLVEDC”, the “soluble on expression in E. coli” value is reported as “not soluble”.

With “MELPRAFGLLLHPTSLPGPYGVGVLGREARDFLRFLKEAGGRYWQVLPLGPTGYGDSPYQSFSAFAGNPYLIDLRPLAERGYVRLEDPGFPQGRVDYGLLYAWKWPALKEAFRGFKEKASPEEREAFAAFREREAWWLEDYALFMALKGAHGGLPWNRWPLPLRKREEKALREAKSALAEEVAFHAFTQWLFFRQWGALKAEAEALGIRIIGDMPIFVAEDSAEVWAHPEWFHLDEEGRPTVVAGVPPDYFSETGQRWGNPLYRWDVLEREGFSFWIRRLEKALELFHLVRIDHFRGFEAYWEIPASCPTAVEGRWVKAPGEKLFQKIQEVFGEVPVLAEDLGVITPEVEALRDRFGLPGMKVLQFAFDDGMENPFLPHNYPAHGRVVVYTGTHDNDTTLGWYRTATPHEKAFMARYLADWGITFREEEEVPWALMHLGMKSVARLAVYPVQDVLALGSEARMNYPGRPSGNWAWRLLPGELSPEHGARLRAMAEATERL”, the “soluble on expression in E. coli” value was “soluble”.

As to “MELRDRIDFLCKTILAIKTAGRLVLGIDGLSRSGKTTLANQLSQTLREQGISVCVFHMDDHIVERAKRYHTGNEEWFEYYYLQWDVEWLTHQLFRQLKASHQLTLPFYDHETDTHSKRTVYLSDSDMIMIEGVFLQRKEWRPFFDFVVYLDCPREIRFARENDQVKQNIQKFINRYWKAEDYYLETEEPIKRADVVFDMTS”, the “soluble on expression in E. coli” value is given as “soluble”.

Consider “MELRELFEVQGELDAHIEKIHPRKEGEKRLEEKILALQTELGEIANEWRQFKFWSNDREPRTERLLEEYVDGFHFVLSIGLEESKRYGQSVPIRLGLPDELTSICYETTIQQFNYLFSEIGRLYDSVTLHEVAADTEVEEAYENIIRMFIGLGEKLGFTEKEIAEGYMRKNMINHERQKNGY”, for which the “soluble on expression in E. coli” value is given as “not soluble”.

Turning to “MELRNTKLEQLFYIYHRNLKYRCPMQYLTKRGFNLQDLLSVGGGLAYLGEKQWLNLSLYNFNNQLVGFLSRKVGFEKKFLYLPINKPPSKSESFLGLKHLPTET”, the “soluble on expression in E. coli” value is “not soluble”.

With “MELTIMSQLIDRRQNAGKKSTVNRQRFLRRYKSQIKKAVSEAVGKRSITEIDQGEQITIPAKDIYEPQFHRGHGGHIERVLPGNDNFIAGDRIKRPGGGGAGGAGGNASDSGEGEDNFVFELSREEFLELYFEDLELPDLVKKELARISTYKTVRAGVTTSGIPNNINVLRSMKQATGRRVALASPYKKRLKEAEEELERLKQLANPDKIDLLKLERDIEFFKKKIQTVPFIDTIDLRYNHRVRVPSPSTQAVMFCVMDVSGSMDEAKKDIAKRFFILLYMFLTKNYEKIELVFIRHHTSAKEVNEEEFFYSRETGGTVVSSALELLNTIIEARYPPQAWNIYVAQASDGDNWNADSPYCQELLQEKIMPLLQYFAYIEIMPRHHQSLWEVYQQVKERYPNFAMENIDNVADIYPVFRELFKRKTVAAALEHHHHHH”, the “soluble on expression in E. coli” value is on record as “not soluble”.

On to “MEMVKSRSKVAIIGAGFVGASAAFTMALRQTANELVLIDVFKEKAIGEAMDINHGLPFMGQMSLYAGDYSDVKDCDVIVVTAGANRKPGETRLDLAKKNVMIAKEVTQNIMKYYNHGVILVVSNPVDIITYMIQKWSGLPVGKVIGSGTVLDSIRFRYLLSEKLGVDVKNVHGYIIGEHGDSQLPLWSCTHIAGKNINEYIDDPKCNFTEEDKKKIAEDVKTAGATIIKNKGATYYGIAVSINTIVETLLKNQNTIRTVGTVINGMYGIEDVAISLPSIVNSEGVQEVLQFNLTPEEEEALRFSAEQVKKVLNEVKNL”, for which the “soluble on expression in E. coli” value is on record as “soluble”.

Take “MENFQPHKQCGYGVIMRLTSKGRYAVTAMLDVALHSQQNPVPLADISERQGISLSYLEQLFSKLRKAGLVASVRGPGGGYRLGMDSYAISIGTVIAAVDESVDATKCNGKGDCQGGTRCLTHTLWRDLSSRITDFLNNITLGELMMDNEVLEVSDRQDLHLAVSQRVSQNNSNTVTIGAAPFGINVRS”: the “soluble on expression in E. coli” value was “not soluble”.

In the case of “MENILEVNQIKKYYKIKTGLLQKTQYVKAVDDVSFSIKKGQTFGLVGESGCGKSTLGKVIIRLEDATSGSIIVNGEDITRLQGKKLRKSRQQYQMIFQDPYASLNPMQMVGDIISEPILNYKKLPKEEIKKEVLYLLKCVGLSEDAYYKYAHEFSGGQRQRVGIARALALRPSLIVADEPVSALDVSVQSQVLNLLKDLQEQFNLSYLFIAHDLSVVKHISDVIGVMYLGHIVEIASDKEIYENPKHPYTKALISSIPQIDKHNNNRIILKGELPSPSNPPQGCPFHTRCPIAQDMCKKSMPELKDIGNEHQVACFYVDKVGDLND”, the “soluble on expression in E. coli” value was “not soluble”.

For “MENKMVEYRKKFGLSQEKLAEKLGVSRQTIISIEKGKYDPSLPLAFEIAKTFQTTIEHVFIYEGKEGEE”, the “soluble on expression in E. coli” value is reported as “not soluble”.

Take “MENLTVTGLVRLIGAGATMIYVVTDNERRTEQIATQAAARLKGAGSPYVWTCTEGFSRDGAVVEGIDDPVAAVGFALAQPGPLLFLFKDLPWFWGDNPYLIRALKDFAMRAKAKAIVVLGQQEGIPAALREEFVILQQGLPAMEEIKAFFEQARARDPQLAQACQERPGLLNDLVVAAQGLDLLDVERGMRGARAAGEAGGEGLVRSIFETKRAIIRTGGIMEFVANDVTPDQVGGMENLKQWMARREQAFGLEGISSGANLPKGVLMMGIAGCGKSLFVKAIAATWRLPLIRLDMAAVYDGSYGTPESSLRKAFRTAEAVAPCVLWIDEIEAGISTQGFKAEGGPASRILGSFLTWMQEKRAPVFVAATANAIEMLPAEIIRKGRFDEIFYIGLPETKGREEIFRIHLTRRKIGLSAFDVPLLAGSTKGFSGAEIEQAVQAAAFEALTGKRPMTQQDLMAAISRTVPLSVTMAEQIKKIEAWAFKRAVPA”: the “soluble on expression in E. coli” value is recorded as “soluble”.

As to “MENPHEQVQANILSRIIGNVKRLNESVAILNQELVTINNRNKNLEIMGAICDNYHSSVQFNLEATNNKKPPL”, the “soluble on expression in E. coli” value is reported as “not soluble”.

Consider “MENTNEAAWILSIDKFRHNEGIINFSDQNRETAYHHTIKEINVALDNFSTKAGDNNMHLVKAKTSQGTELNWHGKFSLSPLKSSGDISFVSPLKIVSDYLQQRILFNITEGSLKVNSHYDFNFAGEQPQFIINNLMASISALEIRSRDDNKKIITSDELSVDLEQLSSLEHHHHHH”, for which the “soluble on expression in E. coli” value is “not soluble”.

The values above are taken from the DeepSol protein solubility set.
